B1: PCNA:TIP peptide complex (1:1) (complex)
chain: MPFEVVFDGAKEFADLIATASNLIDEAAFKFTEEGISMRAMDPSRVVLIDLNLPESIFSKYEVEEPETIGINMDQFKKILKRGKAKDTLILRKGDENFLEITFEGTAKRTFRLPLIDVEELELELPELPFTAKVVLLGEVLKEGIKDASLVSDAIKFIAKENEFTMKAEGETNEVEIRLTLEDEGLLDLEVEEETKSAYGIRYLSDMVKGIGKADEVILRFGNEMPLQMEYMIRDEGRLTFLLAPRVEE
peptide: RLKPTSLDSFLPEEHINYFRDLRIGSKKIRNAKIEEL
B2: TIP peptide (residues 28-64) (peptide, UniProt Q5JH72 28-64, looked up)
peptide: B1 peptide
B3: Proliferating cell nuclear antigen (PCNA1) of Thermococcus kodakarensis (natural protein)
chain: B1 chain
B4: TIP (Thermococcales inhibitor of PCNA), full length (natural protein, T. kodakarensis, UniProt Q5JH72 1-64, looked up)
chain: MDRKLDEFIGDATPKKVSKEKPVRRKKRLKPTSLDSFLPEEHINYFRDLRIGSKKIRNAKIEEL
B5: flap endonuclease 1 (FEN-1) peptide (residues 330-340) (peptide, UniProt Q5JGN0 330-340, looked up)
peptide: KQRTLESWFGR

Data set [1] deals with the molecule itself. The data set can be described thus: SAXS; PCNA:TIP peptide complex at 6.4, 4.8, 4.1 and 2.1 mg/ml, purified by SEC, 50 mM Tris-HCl pH 7.3, 200 mM NaCl, room temperature; fit to a two-member ensemble (1:1 Model A and 2:2 Model C); 2:2 form to 1:1 complexes.
The target in data set [2] is B3. The data set can be described thus: crystal structure; PCNA with TIP peptide (residues 28-64); same space group as PCNA:TIP; 3.4 Å. Particulars: both partners purified.
Data set [3] concerns the molecule itself. The data set can be described thus: SAXS; free PCNA in 50 mM Tris-HCl pH 7.3, 200 mM NaCl, room temperature; fit to the crystal structure PDB 3LX1.
Data set [4] concerns the target B3. The data set can be described thus: crystal structure; PCNA with full length TIP, ratio about 1:1.2, hanging drop; well 1.2 M ammonium sulfate, 50 mM sodium citrate pH 4.0, 10% glycerol; 2.8 Å. Particulars: both partners purified.
Data set [5] addresses B3. In words: crystal structure; PCNA with FEN-1 peptide, ratio about 1:5, sitting drop; well 2.8 M ammonium sulfate, 100 mM citric acid pH 5.3, 10% PEG 4000; 2.0 Å. Particulars: both partners purified.

Data on five molecules can be found in paper PMC5181682 (Nucleic Acids Research, 2016).

With B1, in data set [1], the Kd – broadly, the free concentration of one partner at which half of the binding sites on the other are occupied at equilibrium, for simple one-to-one binding – is about 100 µM and the stoichiometry N – broadly, a count of units in the complex or per binding partner – came out at 2. As to B2, in data set [2], the binding result was “binds”.

Turning to B3, the “stoichiometry N” value in data set [3] is 3. Consider B4, for which the binding result in data set [4] is “binds”. In the case of B5, in data set [5], the binding result is “binds”.
